# Molecular target: R1 pyocin fiber PLES_06171 fragment (residues 323–701) (Pseudomonas aeruginosa LESB58)
# Experiment: crystal structure
substance,measurement,value
R1 pyocin fiber PLES_06171 fragment (residues 323–701) (domain or fragment),stoichiometry N,3

# Reference: article PMC6116203
